Measured values: patent publication US11504389

Tests used:
Experiment in all cases: cell_activity
[1] = system: ZFP SBS#57890 (synthetic); details: human iPSC neurons, 3E5 VG/cell; poor mismatch tolerance
[2] = system: ZFP SBS#52389 (synthetic); details: AAV2/9 CMV-52389-KRAB, 3E5 VG/cell, mouse cortical neurons
[3] = system: ZFP SBS#57880 (synthetic); details: human iPSC neurons, 3E5 VG/cell
[4] = system: ZFP SBS#52322 (synthetic); details: mouse hippocampus in vivo, mean MAPT mRNA reduction
[5] = system: ZFP SBS#52366 (synthetic); details: human iPSC neurons, 3E5 VG/cell

Sequence “ACCCACCAGCTCCGGCAC (double strand) [57890 human MAPT site]” has an activity [1] of 45 % repression.
“CCGTTGCGCCTGATTGATGCCCAGCTCC (double strand) [52389 target]” showed an activity [2] of 98 % repression.
Sequence “GCAGTCACCGCCACCCACC (double strand) [57880 human MAPT site]” has an activity [3] of 95 % repression.
“GTGGCGGAGACTGAGAGCGCGCGCGGCC (double strand) [52322 target]” gave an activity [4] of 66 % repression.
Work on “TCTGTCGACTATCAG (double strand) [52366 human MAPT site]” yielded an activity [5] of 87 % repression.
